Consider 167 variants from the RNAGym collection of RNA variant scans (doi:10.7554/elife.80360).

B1: CPEB3 Ribozyme (parent)
chain: GGGGGCCACAGCAGAAGCGUUCACGUCGCGGCCCCUGUCAGAUUCUGGUGAAUCUGCGAAUUCUGCUGU

The variants in the data set derive from B1. As to the kind of experiment: self-cleavage, relative activity (ratio to wild type); higher = more cleavage; co-transcriptional.
Regarding U26A U69A, the self-cleavage worked out at 0.938.

On to U26G C34A, for which the self-cleavage was determined as 0.57.

Regarding U26A C33A, the self-cleavage worked out at 0.682.

On to U26A C33U, for which the self-cleavage is 0.85.

As to U26A C63U, the self-cleavage is 0.779.

For the variant U26A C63G, the self-cleavage turned out to be 0.507.

Regarding U26C U69G, the self-cleavage is 1.06.

Regarding U26A G65U, the self-cleavage came out at 0.466.

Take U26A G65C: the self-cleavage was found to be 0.466.

Regarding U26A G31U, the self-cleavage came to 0.27.

Regarding U26A G31C, the self-cleavage came out at 0.18.

In the case of G25U U69A, the self-cleavage amounted to 0.136.

For U26C G48U, the self-cleavage was determined as 1.01.

Regarding U26C C39A, the self-cleavage amounted to 0.79.

U26C U36G: the self-cleavage was 0.123.

Take U26G U62A: the self-cleavage is 0.818.

On to U26G U62G, for which the self-cleavage came to 0.617.

For U26G U64G, the self-cleavage was 0.784.

Turning to U26C U49A, the self-cleavage is 0.984.

Regarding G25U U49A, the self-cleavage was 0.12.

Take C27A C54G: the self-cleavage stood at 0.156.

For the variant C27A C54U, the self-cleavage amounted to 0.602.

Turning to C27A C32U, the self-cleavage was found to be 0.543.

As for U26A U67A, the self-cleavage is 0.913.

Consider U26C A42G, for which the self-cleavage was 0.924.

Turning to U26A A51C, the self-cleavage is 0.871.

As to U26A A51G, the self-cleavage was 0.889.

Consider G25U U43A, for which the self-cleavage amounted to 0.0919.

As to G25U U43C, the self-cleavage worked out at 0.122.

Regarding G25U U43G, the self-cleavage worked out at 0.148.

As to U26A G56A, the self-cleavage was determined as 0.748.

For the variant C27A C45U, the self-cleavage turned out to be 0.596.

Consider U26A G41U, for which the self-cleavage worked out at 0.67.

For U26A G41A, the self-cleavage was 0.561.

In the case of U26G C63G, the self-cleavage turned out to be 0.427.

Consider U26C U62G, for which the self-cleavage was 0.694.

As for U26C C35A, the self-cleavage is 0.254.

Take C27A C63U: the self-cleavage turned out to be 0.463.

C27A C63G: the self-cleavage was 0.219.

U26C U43C: the self-cleavage amounted to 0.892.

With U26C U43A, the self-cleavage was determined as 0.865.

Turning to G25U G58U, the self-cleavage stood at 0.186.

For the variant U26A U55A, the self-cleavage came out at 0.745.

Turning to C27A G37A, the self-cleavage worked out at 0.203.

On to U26C C34U, for which the self-cleavage was 0.935.

As for U26C C34A, the self-cleavage came out at 0.731.

U26A U43A: the self-cleavage was found to be 0.846.

With U26G C32U, the self-cleavage turned out to be 0.922.

Take U26A U49G: the self-cleavage is 0.866.

With U26A U49C, the self-cleavage amounted to 0.79.

Take U26A U49A: the self-cleavage came to 0.866.

On to U26A U46C, for which the self-cleavage stood at 0.809.

As to U26A C39U, the self-cleavage stood at 0.722.

On to U26A C39G, for which the self-cleavage amounted to 0.798.

With U26A C39A, the self-cleavage was 0.477.

Regarding U26A G47C, the self-cleavage is 0.891.

As to U26A U44C, the self-cleavage was 0.768.

For C27A G31U, the self-cleavage came to 0.165.

Take C27A G31A: the self-cleavage was 0.171.

Consider U26C C27G, for which the self-cleavage is 0.195.

Regarding U26C C27A, the self-cleavage is 0.45.

Turning to U26C C27U, the self-cleavage is 0.182.

Consider U26A U61A, for which the self-cleavage worked out at 0.515.

In the case of C27A A59G, the self-cleavage is 0.353.

U26G C57U: the self-cleavage amounted to 0.255.

As to U26C G37C, the self-cleavage stood at 0.178.

As to U26C C33U, the self-cleavage stood at 0.997.

For the variant G25U U38A, the self-cleavage is 0.168.

On to G25U U38C, for which the self-cleavage is 0.13.

For the variant U26A A42U, the self-cleavage was 0.863.

Turning to U26G U61A, the self-cleavage turned out to be 0.621.

Take U26G U61C: the self-cleavage was 0.418.

Take U26G C66A: the self-cleavage worked out at 0.533.

For the variant U26G C66U, the self-cleavage came out at 0.888.

Regarding C27A A60C, the self-cleavage was found to be 0.23.

As to U26G C45U, the self-cleavage came out at 0.982.

Turning to U26G U36A, the self-cleavage came out at 0.186.

Take U26A U64C: the self-cleavage turned out to be 0.72.

On to G25U U62G, for which the self-cleavage was determined as 0.116.

For G25U U62A, the self-cleavage was 0.158.

In the case of U26G G48A, the self-cleavage turned out to be 0.937.

Turning to U26G G48C, the self-cleavage is 0.959.

Take U26A A60C: the self-cleavage came out at 0.285.

Consider U26G U49A, for which the self-cleavage is 0.918.

As to G25U U55C, the self-cleavage is 0.229.

For the variant U26A C57A, the self-cleavage worked out at 0.355.

For U26A C35G, the self-cleavage stood at 0.207.

As for G25U G68A, the self-cleavage amounted to 0.204.

G25U U26G: the self-cleavage worked out at 0.0885.

On to C27A G47A, for which the self-cleavage worked out at 0.734.

Consider U26G G65U, for which the self-cleavage was 0.53.

Take U26A G68U: the self-cleavage turned out to be 0.901.

Regarding U26A G68C, the self-cleavage amounted to 0.964.

Consider U26A G48U, for which the self-cleavage was determined as 0.928.

As for U26C C45A, the self-cleavage was found to be 0.936.

As for U26C C45G, the self-cleavage amounted to 0.983.

U26A U62G: the self-cleavage was 0.652.

In the case of U26A U62C, the self-cleavage is 0.669.

With U26G G58C, the self-cleavage turned out to be 0.799.

As for U26A G50U, the self-cleavage was 0.818.

For the variant C27A A51G, the self-cleavage is 0.67.

Regarding C27A A51C, the self-cleavage is 0.494.

As to C27A A52G, the self-cleavage is 0.708.

Consider C27A A52U, for which the self-cleavage stood at 0.547.

As for U26A A59C, the self-cleavage was found to be 0.322.

With U26A C34A, the self-cleavage was 0.436.

U26C G28C: the self-cleavage stood at 0.1.

Turning to U26G G47A, the self-cleavage amounted to 0.893.

With U26G G47U, the self-cleavage was 0.916.

Regarding U26G C29A, the self-cleavage turned out to be 0.329.

Regarding U26C C32U, the self-cleavage amounted to 0.974.

Turning to U26C C32A, the self-cleavage came out at 0.753.

As for U26G G37C, the self-cleavage was determined as 0.162.

Regarding G25U G65A, the self-cleavage was found to be 0.184.

As for G25U G65U, the self-cleavage came to 0.187.

For the variant U26A G30U, the self-cleavage worked out at 0.254.

On to U26A G30C, for which the self-cleavage was 0.266.

As for U26A G58A, the self-cleavage worked out at 0.627.

In the case of U26A G58U, the self-cleavage was determined as 0.852.

As to U26A G58C, the self-cleavage was 0.792.

Regarding U26C G50A, the self-cleavage is 0.953.

For the variant U26G C27A, the self-cleavage was 0.458.

Consider U26G C35U, for which the self-cleavage worked out at 0.726.

With C27A C66U, the self-cleavage turned out to be 0.516.

With U26G U55A, the self-cleavage worked out at 0.737.

As for U26G U55C, the self-cleavage turned out to be 0.787.

For the variant G25U G56U, the self-cleavage came out at 0.134.

For U26C C66U, the self-cleavage amounted to 0.939.

Take U26G A59U: the self-cleavage amounted to 0.455.

Regarding G25U U61A, the self-cleavage was found to be 0.175.

As to G25U U61C, the self-cleavage came to 0.179.

Turning to U26G A42G, the self-cleavage stood at 0.78.

On to U26A C54G, for which the self-cleavage was determined as 0.758.

As for U26A C54A, the self-cleavage was found to be 0.655.

In the case of G25U U36G, the self-cleavage was 0.155.

With C27A G30U, the self-cleavage turned out to be 0.232.

Consider U26G G31C, for which the self-cleavage turned out to be 0.131.

As to U26G G31U, the self-cleavage stood at 0.242.

With U26C U53G, the self-cleavage came out at 0.873.

U26C U53A: the self-cleavage amounted to 0.958.

Turning to U26A G28U, the self-cleavage was 0.211.

U26C C57U: the self-cleavage turned out to be 0.408.

As for U26C G30C, the self-cleavage turned out to be 0.486.

In the case of C27A C29U, the self-cleavage was 0.21.

For C27A C29A, the self-cleavage was 0.184.

For the variant G25U U64G, the self-cleavage was 0.189.

Turning to U26G G30A, the self-cleavage turned out to be 0.509.

As for U26A C27A, the self-cleavage was 0.424.

Consider U26A A40U, for which the self-cleavage is 0.531.

Take C27A C57G: the self-cleavage is 0.298.

On to U26G A60G, for which the self-cleavage was 0.631.

As to U26G A60C, the self-cleavage stood at 0.361.

In the case of U26C G56A, the self-cleavage amounted to 0.855.

U26A C45A: the self-cleavage came out at 0.828.

Regarding U26A C45U, the self-cleavage was 0.879.

On to U26A C45G, for which the self-cleavage is 0.895.

Take C27A C35G: the self-cleavage is 0.256.

As for U26C G68C, the self-cleavage came out at 1.03.

U26C A60G: the self-cleavage is 0.85.

In the case of U26C G65U, the self-cleavage is 0.604.

Take U26C U55G: the self-cleavage is 0.74.

For the variant U26G G41U, the self-cleavage was determined as 0.756.

With C27A G41U, the self-cleavage is 0.16.

Take U26A C29U: the self-cleavage came out at 0.36.

For U26A C29A, the self-cleavage is 0.46.

Turning to U26G G28U, the self-cleavage turned out to be 0.178.

Regarding U26G G28A, the self-cleavage turned out to be 0.183.
